# Results: patent US20260201020A1, “METHODS FOR EXPRESSION OF FUSION-FREE BOVINE ULTRALONG CDR3 SCAFFOLD” (priority 2022, published 2026)
# Several values for one entry are separate records, joined by “and”; a condition that tells them apart may be missing. Equal entries are not always repeated. Where two headings read alike, the source gives them in different places.
# B1: R2F12-His (peptide)
# chain: GGGGAMGSKTKNACPDDFDYRCSCIGGCGCARKGCVGPLCCRSDLGGYLTDSPAYIYLGGGGSGGGGSHHHHHH
# modifications: not checked
# Legend:
# [1] = Capillary isoelectric focusing (cIEF), isoelectric point; type: physicochemical; details: non-reduced; mature knob expression, 2 L scale
# Protocol: Capillary isoelectric focusing (cIEF): 2 mg/mL knob protein samples were diluted 2-fold by combining 30 microliter of sample with 30 μL of Milli-Q water. 20 μL of the diluted sample was added to 180 μL of Master Mix comprised of: 35% of 1% Methyl cellulose, 10 mM of 0.5M Arginine, 10 mM of 0.25M Iminodiacetic acid, 4% of pI 3-10 Pharmalyte solution, 1% of pI 4.05 marker, 1% of pI 9.5 marker, 2M of 8M Urea, and Milli-Q water. The total amount of 200 μL was then aliquoted into the sample plate for iCIEF analysis. Separation of the analyte occurs in the Maurice capillary cIEF cartridge (Bio-techne PN: PS-MC02-C) set to 55 seconds of sample load, and 1 min at 1500 V then 15 min at 3000 V. Both absorbance and fluorescence detection settings were enabled. Absorbance exposure time was set to 0.005 seconds, while fluorescence exposure times were set to 3, 5, 10, 20 and 40 seconds. Data processing was performed by Compass for iCE software (Version: 2.1.0, Build ID: 0226) from Bio-techne.
# [2] = biological target: SARS-CoV-2-Spike receptor binding domain protein (RBD) (Severe acute respiratory syndrome coronavirus 2, UniProt P0DTC2)
# spike RBD = spike RBD (Severe acute respiratory syndrome coronavirus 2, UniProt P0DTC2)
# [3] = biological target: SARS-CoV-2 Spike RBD (SARS-CoV-2), P0DTC2
# [4] = biological target: SARS-CoV-2 Spike RBD (SARS-CoV-2), P0DTC2; remark: listed apart in the source
# [5] = biological target: SARS-CoV-2 Spike RBD (SARS-CoV-2), P0DTC2; remark: listed apart in the source
# [6] = biological target: SARS-CoV-2 Spike RBD (SARS-CoV-2), P0DTC2; remark: listed apart in the source
# [7] = biological target: SARS-CoV-2 Spike RBD (SARS-CoV-2), P0DTC2; remark: listed apart in the source
# [8] = biological target: SARS-CoV-2 Spike RBD (SARS-CoV-2), P0DTC2; remark: listed apart in the source
# [9] = biological target: SARS-CoV-2 Spike RBD (SARS-CoV-2), P0DTC2; remark: listed apart in the source
# [10] = biological target: SARS-CoV-2 Spike RBD (SARS-CoV-2), P0DTC2; remark: listed apart in the source
# [11] = biological target: SARS-CoV-2 Spike RBD (SARS-CoV-2), P0DTC2; remark: listed apart in the source
# [12] = biological target: SARS-CoV-2 Spike RBD (SARS-CoV-2), P0DTC2; remark: listed apart in the source
# [13] = biological target: SARS-CoV-2 Spike RBD (SARS-CoV-2), P0DTC2; remark: listed apart in the source
# [14] = biological target: SARS-CoV-2 Spike RBD (SARS-CoV-2), P0DTC2; remark: listed apart in the source
# [15] = biological target: SARS-CoV-2 Spike RBD (SARS-CoV-2), P0DTC2; remark: listed apart in the source
# [16] = biological target: SARS-CoV-2 Spike RBD (SARS-CoV-2), P0DTC2; remark: listed apart in the source
# [17] = biological target: SARS-CoV-2 Spike RBD (SARS-CoV-2), P0DTC2; remark: listed apart in the source
# [18] = biological target: SARS-CoV-2 Spike RBD (SARS-CoV-2), P0DTC2; remark: listed apart in the source
# [19] = biological target: SARS-CoV-2 Spike RBD (SARS-CoV-2), P0DTC2; remark: listed apart in the source
# [20] = biological target: SARS-CoV-2 Spike RBD (SARS-CoV-2), P0DTC2; remark: listed apart in the source
# [21] = biological target: SARS-CoV-2 Spike RBD (SARS-CoV-2), P0DTC2; remark: listed apart in the source
# [22] = biological target: SARS-CoV-2 Spike RBD (SARS-CoV-2), P0DTC2; remark: listed apart in the source
# [23] = biological target: SARS-CoV-2 Spike RBD (SARS-CoV-2), P0DTC2; remark: listed apart in the source
# [24] = biological target: SARS-CoV-2 Spike RBD (SARS-CoV-2), P0DTC2; remark: listed apart in the source
# [25] = biological target: SARS-CoV-2 Spike RBD (SARS-CoV-2), P0DTC2; remark: listed apart in the source
# [26] = biological target: SARS-CoV-2 Spike RBD (SARS-CoV-2), P0DTC2; remark: listed apart in the source
# [27] = biological target: SARS-CoV-2 Spike RBD (SARS-CoV-2), P0DTC2; remark: listed apart in the source
# [28] = biological target: SARS-CoV-2 Spike RBD (SARS-CoV-2), P0DTC2; remark: listed apart in the source
molecule,measurement,setting,value
R2G3-mini (GSTCPDGYEHTCGCIGGCGCKRSACIGALCCQASLGGWLS),Isoelectric Point (pI) Determination by iCEF,[1],7.37 (non-reduced)
same,Amino Acid Sequence of Binding Epitopes to Spike RBD Protein as determined by HDX Analysis: Major Epitope,[2],154-192 (Major and 154-194 (Major
same,RBD amino acid sequence with maximum protection against deuterium uptake,[2],158-184
same,binding activity to spike RBD,spike RBD,maintain binding activity
R2F12-mini (GGSNACPDDFDYRCSCIGGCGCARKGCVGPLCCRSDLGGYLTDSPA),Isoelectric Point (pI) Determination by iCEF,[1],5.15 (non-reduced)
same,Amino Acid Sequence of Binding Epitopes to Spike RBD Protein as determined by HDX Analysis: Major Epitope,[2],154-194 (Major and 154-192 (Major
same,binding activity to spike RBD,spike RBD,maintain binding activity
B1,Adjusted Binding Rate,[3],9.6 nm/s
same,Adjusted Binding Rate,[4],0.8 nm/s
same,Adjusted Binding Rate,[5],3.61 nm/s
same,Adjusted Binding Rate,[6],2.38 nm/s
same,Adjusted Binding Rate,[7],0.8 nm/s
same,Adjusted Binding Rate,[8],1.33 nm/s
same,Adjusted Binding Rate,[9],2.76 nm/s
same,Adjusted Binding Rate,[10],0.5 nm/s
same,Adjusted Binding Rate,[11],1.62 nm/s
same,Adjusted Binding Rate,[12],4.7 nm/s
same,Adjusted Binding Rate,[13],0.62 nm/s
same,Adjusted Binding Rate,[14],3.6 nm/s
same,Adjusted Binding Rate,[15],1.3 nm/s
same,Adjusted Binding Rate,[16],3.32 nm/s
same,Adjusted Binding Rate,[17],3.54 nm/s
same,Adjusted Binding Rate,[18],2.68 nm/s
same,Adjusted Binding Rate,[19],9.3 nm/s
same,Adjusted Binding Rate,[20],2.11 nm/s
same,Adjusted Binding Rate,[21],2.69 nm/s
same,Adjusted Binding Rate,[22],1.67 nm/s
same,Adjusted Binding Rate,[23],3.86 nm/s
same,Adjusted Binding Rate,[24],5.37 nm/s
same,Adjusted Binding Rate,[25],2.46 nm/s
same,Adjusted Binding Rate,[26],14.9 nm/s
same,Adjusted Binding Rate,[27],0.4 nm/s
same,Adjusted Binding Rate,[28],4.69 nm/s
